For this series, the system named is CC(C)C[C@H](NC(=O)[C@H](CO)NC(=O)[C@H](C)NC(=O)[C@H](CCCNC(=N)N)NC(=O)[C@H](CCCNC(=N)N)NC(=O)[C@@H](N)CC(C)C)C(=O)NCC(=O)O. The series is described as follows: purified protein. The settings on record: Mg2+, ATP.

The kcat is the maximal rate divided by the concentration of active sites. Consider “cAMP-dependent kinase (PKA) catalytic subunit (Homo sapiens)”, for which the kcat amounted to 8.5 ± 0.5 s⁻¹.
